Laboratory results taken from publication PMC11208175.

Substrate: O=P(O)(O)O
Assay: cells, lysate or membranes
Conditions: whole-cell transport in C. crescentus delta-pstS expressing pitA, 0.1-20 µM phosphate, 37 °C, labelled compound (33P tracer)

B1: PitA (Escherichia coli K-12) (protein)
chain: MLHLFAGLDLHTGLLLLLALAFVLFYEAINGFHDTANAVATVIYTRAMRSQLAVVMAAVFNFLGVLLGGLSVAYAIVHMLPTDLLLNMGSSHGLAMVFSMLLAAIIWNLGTWYFGLPASSSHTLIGAIIGIGLTNALMTGTSVVDALNIPKVLSIFGSLIVSPIVGLVFAGGLIFLLRRYWSGTKKRARIHLTPAEREKKDGKKKPPFWTRIALILSAIGVAFSHGANDGQKGIGLVMLVLIGVAPAGFVVNMNATGYEITRTRDAINNVEAYFEQHPALLKQATGADQLVPAPEAGATQPAEFHCHPSNTINALNRLKGMLTTDVESYDKLSLDQRSQMRRIMLCVSDTIDKVVKMPGVSADDQRLLKKLKSDMLSTIEYAPVWIIMAVALALGIGTMIGWRRVATTIGEKIGKKGMTYAQGMSAQMTAAVSIGLASYTGMPVSTTHVLSSSVAGTMVVDGGGLQRKTVTSILMAWVFTLPAAVLLSGGLYWLSLQFL
- Km: 1.9 µM
